Assay results published in PMC7311520, “β-carboline chemical signals induce reveromycin production through a LuxR family regulator in Streptomyces sp. SN-593” (Scientific Reports, 2020).
One block for each molecule: values may come before it.

How the values were obtained:
[1] = target: T1, RevU (LuxR family transcriptional regulator) (Actinacidiphila reveromycinica, UniProt G1UDV5); experiment: SPR (Biacore T200, His6-RevU immobilized on NTA chip); supported by BR-1 bead pull-down with free BR-1 competition; assay type: binding
T1 construct: purified His6-tagged RevU expressed in E. coli from a codon-optimized synthetic gene

[2] = target: T2, RevU (LuxR family regulator), His6-tagged (Streptomyces sp. SN-593 (S. …, UniProt G1UDV5)); experiment: SPR; no BR-1; SPR: 10 mM HEPES pH 7.4, 3 mM EDTA, 150 mM NaCl, 0.05% Tween-20, 25 C, RevU 3.9-250 nM; BLI: 10 mM HEPES pH 7.3, 3 mM EDTA, 150 mM NaCl, 0.05% Tween-20, room temperature; settings: protein: recombinant; tags: His6 (pColdI); chain copies: 2; label: 5'-biotin; blunt
T2 sequence: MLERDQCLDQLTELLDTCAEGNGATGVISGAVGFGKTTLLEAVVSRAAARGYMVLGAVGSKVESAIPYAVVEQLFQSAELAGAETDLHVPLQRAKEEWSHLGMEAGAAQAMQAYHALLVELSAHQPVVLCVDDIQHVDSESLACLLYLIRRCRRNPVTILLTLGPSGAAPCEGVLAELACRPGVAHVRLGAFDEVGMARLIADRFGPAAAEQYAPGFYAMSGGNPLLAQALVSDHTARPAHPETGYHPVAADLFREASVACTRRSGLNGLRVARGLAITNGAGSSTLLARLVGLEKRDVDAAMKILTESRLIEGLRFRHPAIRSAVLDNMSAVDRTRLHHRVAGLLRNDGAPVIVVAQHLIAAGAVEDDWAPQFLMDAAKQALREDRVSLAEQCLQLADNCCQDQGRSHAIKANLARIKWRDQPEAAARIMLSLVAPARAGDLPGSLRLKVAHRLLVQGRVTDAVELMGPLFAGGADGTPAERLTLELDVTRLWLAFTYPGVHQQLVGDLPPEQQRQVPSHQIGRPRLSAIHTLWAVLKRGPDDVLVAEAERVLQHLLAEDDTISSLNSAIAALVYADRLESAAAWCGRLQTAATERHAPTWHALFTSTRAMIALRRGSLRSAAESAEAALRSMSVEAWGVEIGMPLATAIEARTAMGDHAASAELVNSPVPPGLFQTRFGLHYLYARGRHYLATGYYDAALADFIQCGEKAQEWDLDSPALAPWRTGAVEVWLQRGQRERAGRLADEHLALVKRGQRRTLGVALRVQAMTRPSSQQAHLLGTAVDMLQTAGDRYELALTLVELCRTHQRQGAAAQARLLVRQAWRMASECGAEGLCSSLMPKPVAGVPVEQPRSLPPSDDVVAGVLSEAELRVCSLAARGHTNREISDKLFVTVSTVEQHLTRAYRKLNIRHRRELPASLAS

[3] = target: T2, RevU (LuxR family regulator), …; experiment: SPR; compound 3 (tetrahydro BR-1), 125 nM RevU; not enhanced; SPR: 10 mM HEPES pH 7.4, 3 mM EDTA, 150 mM NaCl, 0.05% Tween-20, 25 C, RevU 3.9-250 nM; BLI: 10 mM HEPES pH 7.3, 3 mM EDTA, 150 mM NaCl, 0.05% Tween-20, room temperature; settings: protein: recombinant; tags: His6 (pColdI); chain copies: 2; label: 5'-biotin; blunt

Kd [1]: 1.31 µM
Molecule: NC(=O)c1cc2c([nH]c3ccccc32)c(-c2ccccc2)n1 [compound 1, BR-1]

B1: Fragment 4 (dsDNA)
DNA 1: GATTATGCGTCGCATTCGGTGTTTGTGGAGTTGATCGAGGATCGGGTTCT
DNA 2: AGAACCCGATCCTCGATCAACTCCACAAACACCGAATGCGACGCATAATC
binding result [2]: binds

B2: Fragment 1-1 (dsDNA)
DNA 1: ACGCCGCAACGACCAACAGAGG
DNA 2: CCTCTGTTGGTCGTTGCGGCGT
binding result [3]: binds
